According to article PMC1282572, “Avidin related protein 2 shows unique structural and functional features among the avidin protein family” (BMC Biotechnology, 2005):

Molecular target: the molecule itself
Experiment: SEC; FPLC gel filtration, Superdex HR 10/30 column, 50 mM NaCO3 (pH 11.0), 150 mM NaCl; calibrated with IgG, BSA and ovalbumin; oligomeric state (tetramer)

Protein | stoichiometry N
AVR6(C58S), produced in E. coli (natural protein, chicken, checked by ESI-MS on AVR2-b only; avidin related protein 6 (AVR6), chicken, with C58S; also called AVR6-b) QTVARKCSLTGEWDNNLGSIMTIGAVNDNGEFNGTYITAVADNPGNIKLSPLLGIQHKRASQPTFGFTVHWNFSESTSVFVGQCFVDRSGKEVLKTKWLQRLAVDDISDDWKATRVGYNNFTRQRTVEE | 4
Avidin related protein 2 (AVR2), produced in insect cells (natural protein, chicken, UniProt P56732 25-150, looked up, glycosylated (two potential glycosylation sites; both utilized to some extent), avidin related protein 2 (AVR2), chicken; The crystal structure PDB 1WBI is of the E. coli form AVR2-b) ARKCSLTGEWDNDLGSIMTIGAVNDNGEFDGTYITAVADNPGNITLSPLLGIQHKRASQPTFGFTVHWNFSESTSVFVGQCFVDRSGKEVLKTKWLQRLAVDDISDDWIATRVGNNDFTRQHTVEE | 4
AVR2(I109K) (natural protein, chicken, UniProt P56732 25-150, looked up, avidin related protein 2 (AVR2), chicken, with I109K) ARKCSLTGEWDNDLGSIMTIGAVNDNGEFDGTYITAVADNPGNITLSPLLGIQHKRASQPTFGFTVHWNFSESTSVFVGQCFVDRSGKEVLKTKWLQRLAVDDISDDWKATRVGNNDFTRQHTVEE | 4
AVR2-b (AVR2 produced in E. coli) (natural protein, chicken, three additional residues left at the N-terminus after cleavage of the bacterial OmpA signal peptide; avidin related protein 2 (AVR2), chicken; expected Mr of the product 14307.8 Da; Not glycosylated (bacterial expression); Crystallised in complex with D-biotin) QTVARKCSLTGEWDNDLGSIMTIGAVNDNGEFDGTYITAVADNPGNITLSPLLGIQHKRASQPTFGFTVHWNFSESTSVFVGQCFVDRSGKEVLKTKWLQRLAVDDISDDWIATRVGNNDFTRQHTVEE | 4
AVR4 (carries C122S), produced in insect cells (natural protein, chicken, UniProt P56734 25-150, looked up, avidin related protein 4 (identical to AVR5), chicken, with C122S; also called AVR5 (AVR4 is identical to AVR5)) ARKCSLTGKWTNNLGSIMTIRAVNSRGEFTGTYLTAVADNPGNITLSPLLGIQHKRASQPTFGFTVHWNFSESTTVFTGQCFIDRNGKEVLKTMWLLRSSVNDISYDWKATRVGYNNFTRLSTVEE | 4
AVR4(K109I) (also carries C122S), produced in insect cells (natural protein, chicken, UniProt P56734 25-150, looked up, avidin related protein 4 (identical to AVR5), chicken, with K109I and C122S; An E. coli form, AVR4(K109I)-b, was also made) ARKCSLTGKWTNNLGSIMTIRAVNSRGEFTGTYLTAVADNPGNITLSPLLGIQHKRASQPTFGFTVHWNFSESTTVFTGQCFIDRNGKEVLKTMWLLRSSVNDISYDWIATRVGYNNFTRLSTVEE | 4
